Publication PMC11002074, “Lysyl oxidase-like 4 promotes the invasiveness of triple-negative breast cancer cells by orchestrating the invasive machinery formed by annexin A2 and S100A11 on the cell surface” (Frontiers in Oncology, 2024)

Molecular target: T1, GST-annexin A2 (human, UniProt P07355 1-339)
T1 construct: annexin A2 (ANXA2), human cDNA cloned into pGEX6P1; also called GST-ANXA2; source: E. coli, purified (glutathione beads)
Assay: far-Western, overlay or dot blot; purified proteins (10 µg) dot-blotted on nitrocellulose in duplicate; incubated with bio-PLG (10 µg) together with S100A11 (10 µg); 1 mM Ca2+, 50 mM Tris-HCl pH 7.4; detected with streptavidin-HRP or anti-S100A11
Conditions: both partners purified

T1 sequence (P07355 whole entry): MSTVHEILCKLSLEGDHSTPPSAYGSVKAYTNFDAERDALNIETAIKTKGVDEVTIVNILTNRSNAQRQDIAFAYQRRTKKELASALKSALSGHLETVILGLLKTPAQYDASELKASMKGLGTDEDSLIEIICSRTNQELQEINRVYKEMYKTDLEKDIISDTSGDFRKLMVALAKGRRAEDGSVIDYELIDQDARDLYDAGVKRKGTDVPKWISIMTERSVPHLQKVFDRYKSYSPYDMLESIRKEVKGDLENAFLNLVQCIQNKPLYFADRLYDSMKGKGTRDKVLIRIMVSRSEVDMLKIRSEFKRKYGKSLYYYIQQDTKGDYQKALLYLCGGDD

- binding result: binds
B1: S100A11 (recombinant, GST cleaved) (natural protein, human, UniProt P31949 1-105, looked up)
chain: MAKISSPTETERCIESLIAVFQKYAGKDGYNYTLSKTEFLSFMNTELAAFTKNQKDPGVLDRMMKKLDTNSDGQLDFSEFLNLIGGLAMACHDSFLKAVPSQKRT
notes: S100A11, human cDNA cloned into pGEX6P1; source: E. coli, purified (glutathione beads), GST cleaved by PreScission Protease and removed
